Experiment [1] has as its target Kir4.1 channel (human) (UniProt P78508).
Experiment [2] has as its target Kir1.1 channel (human) (UniProt P48048).
Experiment [3] concerns the target Kir4.1 channel (human) (UniProt P78508). This is another data set of the same source.
The target of experiment [4] is Kir1.1 channel (human) (UniProt P48048). The source holds these as a separate data set.

Read-outs that look alike come from different tables or passages of the source.

UniProt P48048, sequence (P48048 whole entry): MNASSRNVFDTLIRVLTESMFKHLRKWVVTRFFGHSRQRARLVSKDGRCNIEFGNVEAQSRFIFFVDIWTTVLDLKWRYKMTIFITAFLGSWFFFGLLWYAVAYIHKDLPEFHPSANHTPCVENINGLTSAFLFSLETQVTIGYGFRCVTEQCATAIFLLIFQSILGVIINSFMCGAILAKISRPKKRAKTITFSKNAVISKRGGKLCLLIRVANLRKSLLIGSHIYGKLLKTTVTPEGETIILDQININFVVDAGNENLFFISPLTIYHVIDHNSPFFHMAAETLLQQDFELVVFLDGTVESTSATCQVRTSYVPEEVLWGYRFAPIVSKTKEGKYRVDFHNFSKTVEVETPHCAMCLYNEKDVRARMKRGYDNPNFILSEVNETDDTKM
UniProt P78508, sequence (P78508 whole entry): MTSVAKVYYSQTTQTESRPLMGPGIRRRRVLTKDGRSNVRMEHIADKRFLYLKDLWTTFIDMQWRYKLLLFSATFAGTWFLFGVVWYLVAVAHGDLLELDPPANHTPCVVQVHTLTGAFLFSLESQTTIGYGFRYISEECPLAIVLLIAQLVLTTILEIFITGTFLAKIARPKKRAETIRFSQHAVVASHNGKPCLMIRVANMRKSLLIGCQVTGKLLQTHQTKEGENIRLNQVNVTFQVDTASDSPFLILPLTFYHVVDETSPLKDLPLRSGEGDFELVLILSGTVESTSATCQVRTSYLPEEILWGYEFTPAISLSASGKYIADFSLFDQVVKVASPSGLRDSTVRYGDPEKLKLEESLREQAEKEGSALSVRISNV

In the experiment with Kir4.1 channel (human) [1], native SsTx-4 (peptide) returned an IC50 of inhibition of Kir4.1 currents at −40 mV, whole-cell patch clamp, HEK293T of 6200 nM. The IC50 of inhibition of Kir1.1 currents at −40 mV, whole-cell patch clamp, HEK293T in the experiment with Kir1.1 channel (human) [2] was 210 nM.

Turning to recombinant SsTx-4 (peptide), the IC50 of inhibition of Kir4.1 currents at −40 mV, whole-cell patch clamp, HEK293T with Kir4.1 channel (human) [3] turned out to be 5600 nM. Moreover, the IC50 of inhibition of Kir1.1 currents at −40 mV, whole-cell patch clamp, HEK293T in the experiment with Kir1.1 channel (human) [4] is 60.4 nM.

Source of the values: paper PMC8413892.
